Test results: the supplement of paper PMC9233669
Variants at the floor of the assay were thinned out.

How the values were obtained:
[1] = system: biotinyl-Trp-oxazolone; experiment: self-aminoacylation, catalytic enhancement (BWO) (fold over background); higher = more active; k-Seq, kA / k0A0; sequences stand for … in GGGAAUGGAUCCACAUCUACGAAUUC…UUCACUGCAGACUUGACGAAGCUG
In short: (§1)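 Mutagenized RNA pools with a 21-nt variable region (0.43 μM) reacted with each biotinyl-aminoacyl-oxazolone at 2–1250 μM. Reactions ran in 50 μL HEPES/NaCl/KCl/MgCl2/CaCl2 buffer with 5% acetonitrile, pH 6.9–7.0, for 90 minutes at room temperature. Streptavidin-captured RNA was quantified by triplicate qPCR and Illumina sequencing, and per-sequence fraction reacted was fit to a pseudo-first-order model with 1000 bootstraps. Catalytic enhancement is median kA divided by the uncatalyzed rate, the low-activity peak of a bimodal Gaussian fit.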

[2] = system: biotinyl-Leu-oxazolone; experiment: self-aminoacylation, catalytic enhancement (BLO) (fold over background); higher = more active; k-Seq, kA / k0A0; sequences stand for … in GGGAAUGGAUCCACAUCUACGAAUUC…UUCACUGCAGACUUGACGAAGCUG
In short: as §1

[3] = system: biotinyl-Ile-oxazolone; experiment: self-aminoacylation, catalytic enhancement (BIO) (fold over background); higher = more active; k-Seq, kA / k0A0; sequences stand for … in GGGAAUGGAUCCACAUCUACGAAUUC…UUCACUGCAGACUUGACGAAGCUG
In short: as §1

[4] = system: biotinyl-Met-oxazolone; experiment: self-aminoacylation, catalytic enhancement (BMO) (fold over background); higher = more active; k-Seq, kA / k0A0; sequences stand for … in GGGAAUGGAUCCACAUCUACGAAUUC…UUCACUGCAGACUUGACGAAGCUG
In short: as §1

[5] = system: biotinyl-Phe-oxazolone; experiment: self-aminoacylation, catalytic enhancement (BFO) (fold over background); higher = more active; k-Seq, kA / k0A0; sequences stand for … in GGGAAUGGAUCCACAUCUACGAAUUC…UUCACUGCAGACUUGACGAAGCUG
In short: as §1

[6] = system: biotinyl-Val-oxazolone; experiment: self-aminoacylation, catalytic enhancement (BVO) (fold over background); higher = more active; k-Seq, kA / k0A0; sequences stand for … in GGGAAUGGAUCCACAUCUACGAAUUC…UUCACUGCAGACUUGACGAAGCUG
In short: as §1

Sequence	self-aminoacylation [1]	self-aminoacylation [2]	self-aminoacylation [3]	self-aminoacylation [4]	self-aminoacylation [5]	self-aminoacylation [6]
AUUCCCCUAGGUCAUCUGGUG [Fam2.2 aminoacylation ribozyme variant]	15.3	18.8	10.6	14.7	107	9.58
AUUCCCCUGCUCAUCGAGUGA [Fam2.1 aminoacylation ribozyme variant]	1.06	1.89	1.54	1.53	2.12	1.51
AUUCCCCUGGUCAGCGAGUGA [Fam2.1 aminoacylation ribozyme variant]	8.52	7.02	3.66	5.69	39.5	4.24
AUUCCCCUGGUCAUCCAGUGA [Fam2.1 aminoacylation ribozyme variant]	14.3	13.2	6.96	11.6	98.5	6.74
AUUCCCCUGGUCAUCGAAUGA [Fam2.1 aminoacylation ribozyme variant]	2.15	2.09	2.24	2.45	2.91	1.96
AUUCCCCUGGUCAUCGACUGA [Fam2.1 aminoacylation ribozyme variant]	1.41	1.25	1.54	1.23	1.59	1.64
AUUCCCCUGGUCAUCGUGUGA [Fam2.1 aminoacylation ribozyme variant]	5.65	5.32	2.66	5.03	37.6	3.33
AUUCCCCUGGUCCUCGAGUGA [Fam2.1 aminoacylation ribozyme variant]	6.87	7.24	3.65	6.08	42.5	3.77
AUUCCCCUGUUCAUCGAGUGA [Fam2.1 aminoacylation ribozyme variant]	7.62	5.39	4.07	5.28	12.4	4.28
AUUCCCGUAGGUCAUCGGGUG [Fam2.2 aminoacylation ribozyme variant]	25.3	32.4	17	25.3	259	20.2
AUUCCGCUAGGUCAUCGGGUG [Fam2.2 aminoacylation ribozyme variant]	13.6	17.7	8.43	14	128	8.93
AUUCGCCAAGGUCAUCGGGUG [Fam2.2 aminoacylation ribozyme variant]	11	14.7	7.65	10.7	91.8	6.69
AUUCGCCGAGGUCAUCGGGUG [Fam2.2 aminoacylation ribozyme variant]	9.29	13.7	6.76	12.4	80.2	7.83
AUUCGCCUAGGUCAUCGGGGG [Fam2.2 aminoacylation ribozyme variant]	3.54	7.51	4.36	5.82	30	3.72
AUUCGCCUAGGUCAUCGGGUC [Fam2.2 aminoacylation ribozyme variant]	1.76	1.88	1.58	1.62	6.94	1.91
AUUCGCCUAGGUCAUUGGGUG [Fam2.2 aminoacylation ribozyme variant]	4.29	5.43	3.14	4.27	23.2	3.23
AUUCGCCUAGGUGAUCGGGUG [Fam2.2 aminoacylation ribozyme variant]	3.31	3.46	2.56	2.35	20.6	2.48
AUUCGCCUAGGUUAUCGGGUG [Fam2.2 aminoacylation ribozyme variant]	5.88	6.76	3.77	5.77	42.5	4.33
AUUCGCCUAUGUCAUCGGGUG [Fam2.2 aminoacylation ribozyme variant]	4.65	6.54	3.35	5.1	30.7	3.16
AUUCGCCUCGGUCAUCGGGUG [Fam2.2 aminoacylation ribozyme variant]	8.94	10.9	5.14	8.96	56.3	6.21
AUUCUCAUAGGUCAUCGGGUG [Fam2.2 aminoacylation ribozyme variant]	10.6	13.5	5.71	10.8	82.5	6.14
AUUCUCCGAGGUCAUCGGGUG [Fam2.2 aminoacylation ribozyme variant]	14.7	22	9.69	16.7	141	10.6
AUUCUCCUAAGUCAUCGGGUG [Fam2.2 aminoacylation ribozyme variant]	16	21.3	10.3	16	154	9.67
AUUCUCCUAGGACAUCGGGUG [Fam2.2 aminoacylation ribozyme variant]	3.73	5.06	2.81	4.55	27.8	3.62
AUUCUCCUAGGUCAGCGGGUG [Fam2.2 aminoacylation ribozyme variant]	8.04	8.81	4.22	6.21	43.1	3.99
AUUCUCCUAGGUCAUCGGGAG [Fam2.2 aminoacylation ribozyme variant]	1.71	1.77	1.49	1.81	5.17	1.33

Sequence	self-aminoacylation [1]	self-aminoacylation [2]	self-aminoacylation [3]	self-aminoacylation [4]	self-aminoacylation [5]	self-aminoacylation [6]
AUUCUCCUAGGUCAUGGGGUG [Fam2.2 aminoacylation ribozyme variant]	8.92	12.5	5.81	9.56	78.8	5.64
AUUCUCCUAGGUCAUUGGGUG [Fam2.2 aminoacylation ribozyme variant]	6.02	7.5	3.96	5.76	44	3.87
AUUCUCCUAGUUCAUCGGGUG [Fam2.2 aminoacylation ribozyme variant]	5.28	5.88	3.84	4.59	32.7	3.46
AUUCUCGUAGGUCAUCGGGUG [Fam2.2 aminoacylation ribozyme variant]	9.21	12.2	6.47	11.3	77.6	7.51
AUUGACCAAGGUCAUCGGGUG [Fam2.2 aminoacylation ribozyme variant]	6.06	7.01	4.36	6.04	45.5	3.9
AUUGACCUAGGCCAUCGGGUG [Fam2.2 aminoacylation ribozyme variant]	6.22	5.7	3.65	4.78	39.3	4.27
AUUGACCUAGGUCAUCGAGUG [Fam2.2 aminoacylation ribozyme variant]	6.09	13.7	6.03	9.94	27.9	5
AUUGACCUAGGUCAUCGCGUG [Fam2.2 aminoacylation ribozyme variant]	5.47	5.69	3.24	4.19	25	3.69
AUUGACCUAGGUCAUCGGCUG [Fam2.2 aminoacylation ribozyme variant]	1.95	1.76	1.6	1.58	1.19	1.7
AUUGACCUAGGUCAUCGGGUG [Fam2.2 aminoacylation ribozyme variant]	31.1	58.8	20.6	43.8	337	17.4
AUUGACCUAGGUCAUUGGGUG [Fam2.2 aminoacylation ribozyme variant]	3.59	2.94	2.82	2.54	14.7	2.33
AUUGACCUAGGUCCUCGGGUG [Fam2.2 aminoacylation ribozyme variant]	5.43	5.76	4.32	4.64	29	3.24
AUUGACCUUGGUCAUCGGGUG [Fam2.2 aminoacylation ribozyme variant]	5.82	5.49	3.38	5.19	32.8	3.36
AUUGACGUAGGUCAUCGGGUG [Fam2.2 aminoacylation ribozyme variant]	4.06	3.27	2.26	4.18	30.5	3.22
AUUGACUUAGGUCAUCGGGUG [Fam2.2 aminoacylation ribozyme variant]	5.77	6.27	3.47	5.25	39.1	3.95
AUUGAGCUAGGUCAUCGGGUG [Fam2.2 aminoacylation ribozyme variant]	5.57	5.61	3.41	3.78	26.6	3.55
AUUGCCCAGGUCAUCGAGUGA [Fam2.1 aminoacylation ribozyme variant]	5.7	4.81	2.66	5.51	18.4	3.16
AUUGCCCUGAUCAUCGAGUGA [Fam2.1 aminoacylation ribozyme variant]	8.98	7.17	3.73	7.51	26.6	4.01
AUUGCCCUGCUCAUCGAGUGA [Fam2.1 aminoacylation ribozyme variant]	1.04	1.91	1.22	1.86	5.55	1.61
AUUGCCCUGGUCAUCAAGUGA [Fam2.1 aminoacylation ribozyme variant]	2.85	2.05	1.39	2.36	5.6	1.65
AUUGCCCUGGUCAUCGAAUGA [Fam2.1 aminoacylation ribozyme variant]	0.773	1.34	1.05	1.29	0.641	1.29
AUUGCCCUGGUCAUCGAGUCA [Fam2.1 aminoacylation ribozyme variant]	0.652	0.777	0.957	0.817	0.963	0.894
AUUGCCCUGGUCAUCGCGUGA [Fam2.1 aminoacylation ribozyme variant]	23.6	26.3	9.62	23.1	157	12
AUUGCCCUGGUCAUCGGGUGA [Fam2.1 aminoacylation ribozyme variant]	73.4	67.3	23.1	58.1	317	30
AUUGCCCUGGUCAUGGAGUGA [Fam2.1 aminoacylation ribozyme variant]	4.3	4.11	2.9	3.81	23.7	2.58
